In US8691225B2, “Antibodies against the ectodomain of ErbB3 and uses thereof” (Merrimack Pharmaceuticals, Inc., priority 2007, dated 2014):

Tests used:
[1] = target: T1, heregulin binding to ErbB3 on MALME-3M cells (Homo sapiens, UniProt P21860); experiment: biotinylated heregulin binding to MALME3M cells by FACS; assay type: cell-based; conditions: 5 μM antibody, 20 nM heregulin EGF
T1 construct: ErbB3 expressed on MALME-3M melanoma cells; host or cells: MALME-3M melanoma cells
Method: After 30 minutes, 50 μl of 40 nM biotinylated heregulin EGF is added to the cells and incubated for another 10 minutes on ice. This yields a final concentration of 5 μM antibody and 20 nM heregulin EGF. Cells are then washed twice with 500 μl BD stain buffer and incubated with 100 μl of a 1:200 dilution of streptavidin-PE (PE=phycoerythrin) (Invitrogen) in BD stain buffer for 45 minutes. Finally, cells are washed twice, resuspended in 300 μl of BD stain buffer and analyzed in a FACSCALIBUR flow cytometer. As a positive control, 1×10^5 MALME3M cells are incubated with 20 nM heregulin EGF for 10 minutes on ice, washed twice and incubated with a 1:200 dilution of streptavidin-PE for 45 minutes. In order to assess background staining from the streptavidin-PE conjugate, 1×10^5 MALME3M cells are incubated with 100 μl of a 1:200 dilution of streptavidin-PE only for 45 minutes.

MCF-7 cells = experiment: VEGF secretion assay (VEGF ELISA); assay type: cell-based, human; conditions: untreated and HRG treated MCF-7
Text: (§1) In contrast, HRG is able to induce more than a doubling of VEGF secretion in MCF-7 and T47D cells.

COLO-357 cells = experiment: VEGF secretion assay (VEGF ELISA); assay type: cell-based, human; conditions: untreated and HRG treated COLO-357
Text: as §1

[2] = target: T2, ErbB3 receptor on the surface of MALME-3M cells (Homo sapiens, UniProt P21860); experiment: cell surface fluorescence quenching assay (timecourse of ErbB3 downregulation); assay type: cell-based
T2 construct: ErbB3 expressed on MALME-3M melanoma cells; host or cells: MALME-3M melanoma cells
Method: In order to determine whether this downregulation of ErbB3 is due to internalization of the ErbB3 receptor on the surface of MALME-3M cells, a cell surface fluorescence quenching assay is preformed. MALME-3M cells are plated overnight on 6-well plates (0.2×10^6 per well) in RPMI+10% FBS. The following day, old medium is removed and cells are preincubated for 60 minutes on ice in RPMI+2% FBS containing 100 nM of Ab#6 conjugated to the fluorescent dye Alexa 488. Cells are then returned to a 37° C. incubator and incubated for 0.5 h, 2 h or 24 h. At the end of each timepoint, cells are trypsinized, washed with PBS+2% BSA+0.1% sodium azide (FACS stain buffer) and stored on ice until all samples are ready. For a Oh timepoint, cells are immediately trypsinized after the 60 minute preincubation and stored on ice. […] One set of tubes is incubated with 25 ug/ml anti-Alexa 488 antibody for 60 minutes on ice to quench any fluorescence source (i.e., Alexa 488-conjugated Ab#6) on the cell surface. […] For each sample 10,000 events are collected and analyzed with a FACSCALIBUR flow cytometer. This protocol gives an indication of what proportion of AB #6 (as measured by fluorescence) remains on the cell surface (indicated by the differential between the fluorescence of the quenched and unquenched cells at each timepoint) and how much is internalized (indicated by the level of fluorescence of quenched cells).

AdrR (ovarian) xenograft = experiment: xenograft tumor growth in nude mice; assay type: in vivo, mouse; conditions: 300 ug every three days (Q3d); p<0.05
Method: (§2) For example, T-cell deficient nu/nu mice (3-4 week old female mice originated at NIH; outbred; albino background) are purchased from Charles River Labs (Wilmington, Mass.) for xenograft studies. AdrR cells for implantation are grown in culture (RPMI media, 10% FBS, L-glutamine and antibiotics, 37° C., 5% CO2) to about 85% confluency before harvesting. Cells are kept on ice until implantation. Mice are implanted via subcutaneous injection with 100 μl AdrR cells (6×10^6 cells in PBS) on the right flank and allowed to recover while being monitored for initial tumor growth.
(§3) Tumors are measured (length by width) by digital caliper and the mice are dosed with IgG2a (Sigma, M7769-5MG) by intravenous injection.
(§4) Final tumor measurements (L×W) are taken, the mice are euthanized by CO2 asphyxiation and tumors are excised, snap frozen in liquid nitrogen, and are stored at −80° C. (for biochemical analysis). Final tumor measurements are analyzed and graphed by tumor area and tumor volume, as described in Burtrum et al., supra. The data are also analyzed by “normalized” and “non-normalized” means for both tumor volume and tumor area. For the “normalization” of the data, at each time point of measurement, each tumor in each group is divided by the initial tumor size determined by caliper measurement.

[3] = tested on: OvCAR8 (ovarian) xenograft; experiment: xenograft tumor growth in nude mice; assay type: in vivo, mouse
Method: as §2, §3, §4

[4] = tested on: ACHN (a renal tumor cell line) xenograft tumors; experiment: ACHN xenograft combination therapy; assay type: in vivo, mouse; conditions: Ab #6 300 μg IP every three days; erlotinib 25 mg/kg orally once daily
Method: In a first experiment, mice bearing ACHN (a renal tumor cell line) xenograft tumors are prepared by establishing tumors subcutaneously in the flanks of nude mice (Charles River Laboratories).

B1: Ab #6: human anti-ErbB3 antibody from Fab-phage library, CDRs SEQ ID NOs:7-12; used as IgG1 and IgG2 isotypes; in phase I trials as MM-121 (antibody, V domains shown)
VH: EVQLLESGGGLVQPGGSLRLSCAASGFTFSHYVMAWVRQAPGKGLEWVSSISSSGGWTLYADSVKGRFTISRDNSKNTLYLQMNSLRAEDTAVYYCTRGLKMATIFDYWGQGTLVTVSS
VL: QSALTQPASVSGSPGQSITISCTGTSSDVGSYNVVSWYQQHPGKAPKLIIYEVSQRPSGVSNRFSGSKSGNTASLTISGLQTEDEADYYCCSYAGSSIFVIFGGGTKVTVL
[1]
  inhibition of heregulin binding to ErbB3: able to inhibit heregulin binding to ErbB3
MCF-7 cells
  inhibition of VEGF secretion: potent inhibitory effect at high levels in all three cell lines
COLO-357 cells
  inhibition of VEGF secretion: potent inhibitory effect at high levels in all three cell lines with the highest being in COLO-357
[2]; after about 30 minutes
  downregulation of cell surface ErbB3 receptors: about 50%
[2]; at about 24 hours
  downregulation of cell surface ErbB3 receptors: about 93%
AdrR (ovarian) xenograft
  inhibition of tumor growth: significant inhibition of tumor growth
[3]; 300 ug every three days (Q3d), p<0.05
  inhibition of tumor growth: significant inhibition of tumor growth
[3]; 1500 ug Q3d versus 600 ug
  inhibition of tumor growth: did not result in increased efficacy
[4]
  inhibition of tumor growth (tumor volume): inhibit tumor growth
